From US20240150494A1 (ROCKEFELLER UNIVERSITY, published 2024)

Legend:
[1] = target: T1, IgG1, G0 afucosylated glycoform (antibody not named); test: sandwich ELISA, IgG titrated
T1 construct: also called GO

[2] = target: T2, anti-NP (4-hydroxy-3-nitrophenylacetyl) antibody clone 3B62 IgG1, afucosylated; test: SPR, 1:1 Langmuir global kinetic fit, 256 to 16 nM in 2-fold steps
T2 construct: In the FcγRIIIA ELISA it stood as an immune complex with NP-BSA (10:1); also called 3B62 IgG1 G2; monomeric 3B62

B1: B7 (VHH)
VHH: QVQLQESGGGLVQAGGSLRLSCAASGGISRYKTMGWYRQAPGKEREFVAGITWGGSTYYADSVKGRFTISRDNAKNTVYLQMNSLKPEDTAVYYCSVDGGTYADPYHYYWGQGTQVTVSS
notes: also called clone B7; nanobody B7; not shown: His tag and AviTag of the pET26-b(+) construct
[1]
  EC50 (read off the curve): ~0.4 µg/mL
[2]
  Kd: 3.76 µM
